{"source": "IntAct's records for PubMed 14551211", "parents": {"B1": {"name": "ATP-dependent DNA helicase II subunit 2 (Saccharomyces cerevisiae), Q04437 (parent)", "chain": "MSSESTTFIVDVSPSMMKNNNVSKSMAYLEYTLLNKSKKSRKTDWISCYLANCPVSENSQEIPNVFQIQSFLAPVTTTATIGFIKRLKQYCDQHSHDSSNEGLQSMIQCLLVVSLDIKQQFQARKILKQIVVFTDNLDDLDITDEEIDLLTEELSTRIILIDCGKDTQEERKKSNWLKLVEAIPNSRIYNMNELLVEITSPATSVVKPVRVFSGELRLGADILSTQTSNPSGSMQDENCLCIKVEAFPATKAVSGLNRKTAVEVEDSQKKERYVGVKSIIEYEIHNEGNKKNVSEDDQSGSSYIPVTISKDSVTKAYRYGADYVVLPSVLVDQTVYESFPGLDLRGFLNREALPRYFLTSESSFITADTRLGCQSDLMAFSALVDVMLENRKIAVARYVSKKDSEVNMCALCPVLIEHSNINSEKKFVKSLTLCRLPFAEDERVTDFPKLLDRTTTSGVPLKKETDGHQIDELMEQFVDSMDTDELPEIPLGNYYQPIGEVTTDTTLPLPSLNKDQEENKKDPLRIPTVFVYRQQQVLLEWIHQLMINDSREFEIPELPDSLKNKISPYTHKKFDSTKLVEVLGIKKVDKLKLDSELKTELEREKIPDLETLLKRGEQHSRGSPNNSNN"}}, "data": [{"variants_of": "B1", "details": "with sir4_yeast SIR4, P11978", "values": [{"variant": "P437A;F438A", "effect of a mutation on the interaction": "decreasing interaction"}, {"variant": "D441G", "effect of a mutation on the interaction": "decreasing interaction"}]}]}
